The values that follow come from patent US20230080534A1 (SHANGHAI BIOTROY BIOTECHNIQUE, published 2023).

One assay deals with T1, SEMG2(354-403) fragment (human).
T1 peptide: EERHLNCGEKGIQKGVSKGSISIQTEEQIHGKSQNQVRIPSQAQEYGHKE
The assay is described as follows: ELISA, immobilized antigen SEMG2 (354-403). From the text: (§1) To clearly distinguish the binding epitopes of blocking antibodies (i.e., antibodies that can inhibit the binding between SEMG2 and CD27) and non-blocking antibodies, a corresponding ELISA analysis method was established. […] Anti-mouse or anti-rabbit secondary antibodies were then used to detect the corresponding bound antibodies.
In general terms: In an ELISA, binding on a coated surface is turned into a signal by an enzyme label.

For a further assay, the target named is T2, QIEKLVEGASQIQ (not fully specified).
T2 construct: member of the group m41; the text speaks of glycine substitution, the sheet prints alanine
T2 peptide: QIEKLVEGASQIQ
The assay is described as follows: ELISA, immobilized peptide QIEKLVEGASQIQ
The source says:
(§2) FIG. 20 depicts the value detected by ELISA, i.e., OD₄₅₀ absorbance. […] This experiment is used to determine the precise amino acid epitopes that different monoclonal antibodies bind to, and the relative importance of each amino acid to the binding antibody.

For assay [1], the target named is T3, human SEMG2 full-length protein (human, UniProt Q02383 24-582, limits assumed).
T3 construct: also called SEMG2 protein; semenogelin 2
T3 sequence: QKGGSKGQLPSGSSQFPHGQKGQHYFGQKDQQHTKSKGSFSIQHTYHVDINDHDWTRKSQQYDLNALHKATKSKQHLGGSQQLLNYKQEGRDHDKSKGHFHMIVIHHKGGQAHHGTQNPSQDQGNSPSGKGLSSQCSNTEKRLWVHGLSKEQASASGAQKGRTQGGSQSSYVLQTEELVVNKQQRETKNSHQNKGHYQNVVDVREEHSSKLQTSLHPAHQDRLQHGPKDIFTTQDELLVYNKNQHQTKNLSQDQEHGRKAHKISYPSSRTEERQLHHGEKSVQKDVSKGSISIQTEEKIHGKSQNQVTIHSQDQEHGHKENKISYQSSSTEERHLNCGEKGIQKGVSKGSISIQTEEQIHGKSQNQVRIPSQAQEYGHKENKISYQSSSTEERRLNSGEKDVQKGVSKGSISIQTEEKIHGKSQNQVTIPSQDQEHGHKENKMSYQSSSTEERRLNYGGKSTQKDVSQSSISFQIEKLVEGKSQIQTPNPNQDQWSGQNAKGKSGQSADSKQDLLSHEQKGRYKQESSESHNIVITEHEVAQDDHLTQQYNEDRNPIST
The assay is described as follows: ELISA, plate coated with SEMG2 protein, anti-mouse secondary antibody; the EC50 table prints no unit, the axis is log (antibody concentration, nM).

The next assay has as its target T4, AIEKLVEGKSQIQ (not fully specified).
T4 construct: member of the group m41; the text speaks of glycine substitution, the sheet prints alanine
T4 peptide: AIEKLVEGKSQIQ
The assay is described as follows: ELISA, immobilized peptide AIEKLVEGKSQIQ
From the text: as §2

A further assay has as its target T5, QIEALVEGKSQIQ (not fully specified).
T5 construct: member of the group m41; the text speaks of glycine substitution, the sheet prints alanine
T5 peptide: QIEALVEGKSQIQ
The assay is described as follows: ELISA, immobilized peptide QIEALVEGKSQIQ
From the text: as §2

Assay [2] has as its target T3, human SEMG2 full-length protein. The assay is described as follows: ELISA on SEMG2 protein, run beside the humanized antibodies; the EC50 table prints no unit, the axis is log (antibody concentration, nM).
A further assay deals with T6, QIEKLAEGKSQIQ (not fully specified).
T6 construct: member of the group m41; the text speaks of glycine substitution, the sheet prints alanine
T6 peptide: QIEKLAEGKSQIQ
The assay is described as follows: ELISA, immobilized peptide QIEKLAEGKSQIQ
From the text: as §2

The target in another assay is T7, QIEKLVEGKSQIA (not fully specified).
T7 construct: alanine at this position
T7 peptide: QIEKLVEGKSQIA
In words: ELISA, immobilized peptide QIEKLVEGKSQIA
From the text: as §2

The target in a further assay is T8, QAEKLVEGKSQIQ (not fully specified).
T8 construct: member of the group m41; the text speaks of glycine substitution, the sheet prints alanine
T8 peptide: QAEKLVEGKSQIQ
The assay is described as follows: ELISA, immobilized peptide QAEKLVEGKSQIQ
From the text: as §2

Another assay concerns the target T9, QIEKLVEGKSQAQ (not fully specified).
T9 construct: member of the group m41; the text speaks of glycine substitution, the sheet prints alanine
T9 peptide: QIEKLVEGKSQAQ
In words: ELISA, immobilized peptide QIEKLVEGKSQAQ
From the text: as §2

For assay [3], the target named is T10, BSA-conjugated human SEMG2 (497-509) polypeptide (human, also: coupled to BSA, site not given here).
T10 peptide: QIEKLVEGKSQIQ
The assay is described as follows: ELISA on BSA-SEMG2 (497-509), antibody titrated.

The target of another assay is T11, QIEKLVAGKSQIQ (not fully specified).
T11 construct: member of the group m41; the text speaks of glycine substitution, the sheet prints alanine
T11 peptide: QIEKLVAGKSQIQ
In words: ELISA, immobilized peptide QIEKLVAGKSQIQ
From the text: as §2
To further precisely define the exact epitopes (specific to the level of single amino acid) to which blocking antibodies MM02, MM05, MM07, MM08, MM13, MM14 bind, corresponding ELISA analysis method was established. […] Anti-mouse or anti-rabbit secondary antibodies were then used to detect the corresponding bound antibodies.

In another assay the target is T12, SEMG2(563-574) fragment (human).
T12 peptide: VAQDDHLTQQYN
In words: ELISA, immobilized antigen SEMG2 (563-574).
From the text: as §1

The next assay has as its target T13, SEMG2(442-453) fragment (human).
T13 peptide: IHGKSQNQVTIP
In words: ELISA, immobilized antigen SEMG2 (442-453).
From the text: as §1

The target of another assay is T14, QIEKLVEGKSAIQ (not fully specified).
T14 construct: alanine at this position
T14 peptide: QIEKLVEGKSAIQ
The assay is described as follows: ELISA, immobilized peptide QIEKLVEGKSAIQ
From the text: as §2

The target in assay [4] is T3, human SEMG2 full-length protein. The assay is described as follows: biolayer interferometry (ForteBio Blitz or Gator). The method, boiled down: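 KD of antibodies binding human SEMG2 measured by biolayer interferometry, with antibody and SEMG2 in SD buffer. KD derived by binding-curve analysis.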
The target in assay [5] is T15, SEMG2(497-509) polypeptide QIEKLVEGKSQIQ (human).
T15 peptide: QIEKLVEGKSQIQ
The assay is described as follows: ELISA, immobilized peptide QIEKLVEGKSQIQ
From the text: as §2

Assay [6] addresses T15, SEMG2(497-509) polypeptide QIEKLVEGKSQIQ
The assay is described as follows: ELISA, immobilized antigen SEMG2 (497-509).
From the text: as §1

Another assay addresses T16, QIEKLVEAKSQIQ
T16 construct: member of the group m41; position 504 is glycine in SEMG2 and the sheet prints alanine there
T16 peptide: QIEKLVEAKSQIQ
In words: ELISA, immobilized peptide QIEKLVEAKSQIQ
From the text: as §2

Assay [7] deals with T3, human SEMG2 full-length protein. The assay is described as follows: ELISA, immobilized antigen SEMG2 (1-582).
From the text: as §1

In the next assay the target is T17, QIEKAVEGKSQIQ (not fully specified).
T17 construct: alanine at this position
T17 peptide: QIEKAVEGKSQIQ
The assay is described as follows: ELISA, immobilized peptide QIEKAVEGKSQIQ
From the text: as §2

The target in a further assay is T18, QIAKLVEGKSQIQ (not fully specified).
T18 construct: member of the group m41; the text speaks of glycine substitution, the sheet prints alanine
T18 peptide: QIAKLVEGKSQIQ
The assay is described as follows: ELISA, immobilized peptide QIAKLVEGKSQIQ

The target of a further assay is T19, QIEKLVEGKAQIQ (not fully specified).
T19 construct: alanine at this position
T19 peptide: QIEKLVEGKAQIQ
The assay is described as follows: ELISA, immobilized peptide QIEKLVEGKAQIQ
From the text: as §2

In assay [8] the target is T3, human SEMG2 full-length protein. The assay is described as follows: ELISA (FIG. 21B-D).
Assay [9] has as its target T10, BSA-conjugated human SEMG2 (497-509) …. The assay is described as follows: ELISA (FIG. 21B-D).
Assay [10] deals with T3, human SEMG2 full-length protein. The assay is described as follows: ELISA on SEMG2; the EC50 table prints no unit, the axis is log (antibody concentration, nM).
The target of assay [11] is T10, BSA-conjugated human SEMG2 (497-509) …. The assay is described as follows: ELISA on BSA-S2 (497-509); the EC50 table prints no unit, the axis is log (antibody concentration, nM).

No end group written: not given here.

B1: MM05 (antibody, IgG1, V domains shown)
VH: QVQLQQPGAELVRPGASVKLSCEASGYTFTSYWMNWVKQRPGQGLEWIGMIDPSDSETHYNQMFKDKATLTVDKSSSTAYMQLSSLTSEDSAVYYCARYLGGKEGSFDYWGQGTTLTVSS
VL: DIVMSQSPSSLAVSAGEKVTMSCKSSQSLLNSRTRKNYLAWYQQKPGQSPKLLIYWASTRESGVPDRFTGSGSGTDFTLTISSVQAEDLAVYYCKQSYSLPWTFGGGTKLEIKR
For orientation: EC50 means the midpoint of the concentration-response curve. Low values mean an effect from little substance, high ones a need for much substance. The EC50 (read off the curve) is the concentration needed to bring the measured effect to its halfway point. A lower EC50 (read off the curve) goes with higher potency in that assay. By Kd is commonly meant the equilibrium constant for the complex coming apart. High values mean weaker binding, low ones tighter binding. For B1, the A450 absorbance is 0.008 in the assay with SEMG2(354-403) fragment, 0.009 in the assay with SEMG2(442-453) fragment, 1.17 in assay [6] and 1.17 in assay [7]. The binding result with SEMG2(354-403) fragment, with SEMG2(563-574) fragment and in the assay with SEMG2(442-453) fragment was “no binding” in each case. For the same molecule, the OD450 absorbance with QIEKLVEGASQIQ was 0.852; with AIEKLVEGKSQIQ, 0.638; in the assay with QIEALVEGKSQIQ, 0.726; with QIEKLAEGKSQIQ, 0.558; with QIEKLVEGKSQIA it was 1.21; in the assay with QAEKLVEGKSQIQ it was 0.796. Moreover, the OD450 absorbance stood at 0.868 with QIEKLVEGKSQAQ; 0.615 with QIEKLVAGKSQIQ; 1.26 in the assay with QIEKLVEGKSAIQ; 1.27 in [5]; 0.723 with QIEKLVEAKSQIQ; 0.259 in the assay with QIEKAVEGKSQIQ. The OD450 absorbance is 0.728 with QIAKLVEGKSQIQ and 0.168 with QIEKLVEGKAQIQ. Further, the EC50 in assay [1] came out at 0.535 nM; in assay [2], 0.147 nM. The “EC50 (read off the curve)” value in [3] was roughly 8 ng/mL. In [4], the Kd was determined as 5.28 nM.

B2: 96-10R-10 (antibody, V domains shown)
VH: QVQLLESGGGLVQPGGSLRLSCSASGFTFSSRAMHWVRQAPGKGLEYVSAISSNGGSTYYADSVKGRFTISRDNSKNTLYLQMSSLRAEDTAVYYCVIEGGSTGSTTSGAFDIWGQGTMVTVSS
VL: DIQMIQSPPSVSASVGDTVTIACRANQGIDSWLAWYQQKPGRAPKLLIYSASRLQSGVPSRFSGGGSGTDFALTISNLQPEDFATYYCQQALSLPITFGQGTRLEIK
As to B2, the “fold higher affinity than the parent antibody (H88-96)” value in assay [8] and in [9] was greater than 10 fold in each case. Moreover, the EC50 in assay [10] was found to be 0.241 nM; in assay [11], 3.36 nM.

B3: MM02 (antibody, IgG2b, V domains shown)
VH: QIQLVQSGPEVKKPGETVRISCKASGYTLTTAGIQWVQKMPGKGLKWIGWINTHSGVPEYAEDFKGRFAFFLETSASTAYLQISNLKNEDTATYFCARLGLLGYWGQGTTLTVSS
VL: DILLTQSPAILSVSPGERVSFSCRASQSIGTTIHWYQQRTNGSPRLLIKYASESISGIPSRFSGSGSGTDFTLSINSVESEDIADYYCQQSNSWPWTFGGGTKLEIKR
Take B3: the A450 absorbance with SEMG2(354-403) fragment was found to be 0.004; in the assay with SEMG2(563-574) fragment it was 0.005; with SEMG2(442-453) fragment, 0.001; in assay [6], 1.18; in assay [7], 1.2. In addition, the binding result in the assay with SEMG2(354-403) fragment, with SEMG2(563-574) fragment and with SEMG2(442-453) fragment was “no binding” each time. Moreover, the OD450 absorbance is 0.949 with QIEKLVEGASQIQ; 0.45 with AIEKLVEGKSQIQ; 0.47 in the assay with QIEALVEGKSQIQ; 0.928 with QIEKLAEGKSQIQ; 1.15 with QIEKLVEGKSQIA; 0.541 with QAEKLVEGKSQIQ. Besides, the OD450 absorbance stood at 0.894 with QIEKLVEGKSQAQ; 0.48 with QIEKLVAGKSQIQ; 1.26 with QIEKLVEGKSAIQ; 1.26 in assay [5]; 0.766 with QIEKLVEAKSQIQ; 0.051 in the assay with QIEKAVEGKSQIQ. Besides, the OD450 absorbance in the assay with QIAKLVEGKSQIQ was 0.788; with QIEKLVEGKAQIQ, 0.173. Besides, in assay [1], the EC50 came to 0.176 nM. For the same molecule, in assay [3], the “EC50 (read off the curve)” value is roughly 4 ng/mL. For the same molecule, the Kd in [4] was 1.33 nM.
